According to PMC9450512:
Several values for one entry are separate records, joined by “and”; a condition that tells them apart may be missing. Identical values can stand only once.

Target: Catalytic Domain of Human HDAC7 (cdHDAC7), biotinylated (human)
Assay: BLI

Kd: 0.72 µM and 1 µM
Substance: Ac-Leu-Gly-Lys(Ac)-NH2 (LGKAc), acetylated peptide derived from histone 4 lysine 12
